PMC2192386

Columns and labels:
[1] = biological target: N-RAP-NH (the NH2-terminal half of N-RAP including the LIM domain); experiment: ELISA
[2] = biological target: N-RAP-IB (the region of N-RAP between the LIM domain and the nebulin-like repeats); experiment: ELISA

Kd [1]: 8 nM
Kd [2]: 17 nM
B1: muscle LIM protein (MLP), rat, histidine-tagged, full length (natural protein)
chain: MPNWGGGAKCGACDKTVYHAEEIQCNGRSFHKTCFHCMACRKALDSTTVAAHESEIYCKVCYGRKYGPKGIGFGQGAGCLSTDTGEHLGLQFQQSPKPARAATTSNPSKFSAKFGESEKCPRCGKSVYAAEKVMGGGKPWHKTCFPCAICGKSLESTNVTDKDGELYCKVCYAKNFGPTGIGFGGLTHQVEKKE
